Data as given in US20110300138A1 (published 2011).
Values belong to the molecule of their own block, whether it stands above or below them.

Legend:
[1] = target: TSHR (thyroid stimulating hormone receptor), full length human (human) (UniProt P16473); assay: competitor ^125I-K1-70 IgG, TSHR coated tubes; 1 µg/mL in HBD
[2] = target: TSH receptor (full length human TSHR) (human) (UniProt P16473); assay: competition ELISA: inhibition of M22 Fab-peroxidase (competitor) binding to TSHR coated wells; test sample at 1 µg/mL diluted in HBD serum pool
[3] = target: TSH receptor (TSHR), full length human, coated on tubes (human) (UniProt P16473); assay: inhibition of 125I-TSH binding to TSHR coated tubes; 0.01 µg/mL, diluted in assay buffer
[4] = target: TSH receptor (TSHR), full length human, coated on tubes (human) (UniProt P16473); assay: inhibition of 125I-K1-18 IgG binding to TSHR coated tubes; competitor 125I-K1-18 IgG; sample at 0.1 µg/mL in assay buffer
[5] = target: TSHR (full length) coated on tubes (human) (UniProt P16473); assay: inhibition of 125I-K1-18 Fab (competitor) binding to TSHR coated tubes; test sample 10 µg/mL in assay buffer
[6] = target: TSH receptor (TSHR), full length human, coated on tubes (human) (UniProt P16473); assay: inhibition of 125I-TSH binding to TSHR coated tubes; 0.003 µg/mL, diluted in assay buffer
[7] = target: TSHR (full length) coated on tubes (human) (UniProt P16473); assay: inhibition of 125I-K1-18 Fab (competitor) binding to TSHR coated tubes; negative control 1 µg/mL in assay buffer
[8] = target: human thyroid stimulating hormone receptor (TSHR), full length (human) (UniProt P16473); assay: 125I-K1-70 Fab (competitor) binding to TSHR coated tubes; negative control MAb 100 µg/mL in assay buffer
[9] = target: TSHR (thyroid stimulating hormone receptor), full length human (human) (UniProt P16473); assay: negative control; competitor ^125I-K1-70 IgG, TSHR coated tubes; 100 µg/mL in HBD
[10] = target: TSH receptor (TSHR), full length human, coated on tubes (human) (UniProt P16473); assay: inhibition of 125I-K1-18 IgG binding to TSHR coated tubes; competitor 125I-K1-18 IgG; negative control sample at 10 µg/mL in assay buffer
[11] = target: TSHR (full length) coated on tubes (human) (UniProt P16473); assay: inhibition of 125I-K1-18 Fab (competitor) binding to TSHR coated tubes; negative control 1 µg/mL in HBD serum
[12] = target: TSH receptor (full length human TSHR) (human) (UniProt P16473); assay: competition ELISA: inhibition of M22 Fab-peroxidase (competitor) binding to TSHR coated wells; negative control at 10 µg/mL diluted in assay buffer
[13] = target: TSH receptor (full length human TSHR) (human) (UniProt P16473); assay: competition ELISA: inhibition of M22 Fab-peroxidase (competitor) binding to TSHR coated wells; negative control at 0.01 µg/mL diluted in HBD serum pool
[14] = target: human TSH receptor (full length) coated on ELISA plate wells (human) (UniProt P16473); assay: TSH-biotin binding inhibition ELISA, TSHR coated wells; 10 µg/mL in HBD serum pool; negative control MAb
[15] = target: TSHR (full length) coated on tubes (human) (UniProt P16473); assay: inhibition of 125I-K1-18 Fab (competitor) binding to TSHR coated tubes; negative control 0.01 µg/mL in HBD serum
[16] = target: human TSH receptor (full length) coated on ELISA plate wells (human) (UniProt P16473); assay: TSH-biotin binding inhibition ELISA, TSHR coated wells; 0.1 µg/mL in assay buffer; negative control MAb
[17] = target: TSH receptor (TSHR) coated on tubes (human) (UniProt P16473); assay: inhibition of 125I-K1-70 IgG binding to TSHR coated tubes; sample 1 µg/mL in HBD serum pool
[18] = target: thyroid stimulating hormone receptor (full length human TSHR) (human) (UniProt P16473); assay: ELISA: inhibition of M22 Fab-peroxidase (competitor) binding to TSHR coated wells; 0.1 µg/mL, diluted in assay buffer
[19] = target: human thyroid stimulating hormone receptor (TSHR), full length (human) (UniProt P16473); assay: 125I-K1-18 Fab competition, TSHR coated tubes; 0.1 µg/mL in HBD
[20] = target: human TSH receptor (full length) coated on ELISA plate wells (human) (UniProt P16473); assay: TSH-biotin binding inhibition ELISA, TSHR coated wells; 0.1 µg/mL in HBD serum pool
[21] = target: TSH receptor (TSHR), full length human, coated on tubes (human) (UniProt P16473); assay: inhibition of 125I-K1-18 IgG (competitor) binding to TSHR coated tubes; test sample at 0.01 µg/mL in assay buffer
[22] = target: TSH receptor (TSHR), full length human, coated on tubes (human) (UniProt P16473); assay: inhibition of 125I-TSH binding to TSHR coated tubes; 100 µg/mL, diluted in HBD serum pool
[23] = target: human thyroid stimulating hormone receptor (TSHR), full length (human) (UniProt P16473); assay: 125I-K1-18 Fab competition, TSHR coated tubes; 1 µg/mL in HBD
[24] = target: TSH receptor (TSHR), full length human, coated on tubes (human) (UniProt P16473); assay: inhibition of 125I-K1-18 IgG (competitor) binding to TSHR coated tubes; test sample at 100 µg/mL in assay buffer
[25] = target: thyroid stimulating hormone receptor (full length human TSHR) (human) (UniProt P16473); assay: ELISA: inhibition of M22 Fab-peroxidase (competitor) binding to TSHR coated wells; 1 µg/mL, diluted in assay buffer
[26] = target: thyroid stimulating hormone receptor (full length human TSHR) (human) (UniProt P16473); assay: ELISA: inhibition of M22 Fab-peroxidase (competitor) binding to TSHR coated wells; 0.01 µg/mL, diluted in assay buffer
[27] = target: human TSH receptor (full length) coated on ELISA plate wells (human) (UniProt P16473); assay: TSH-biotin binding inhibition ELISA, TSHR coated wells; 10 µg/mL in HBD serum pool

Inhibition of binding (%) [1]: 40.5%
Inhibition of binding (%) [2]: 57.8%
Inhibition of binding (%) [3]: 15.8%
Inhibition of binding (%) [4]: 54.8%
Inhibition of binding (%) [5]: 69.5%
Molecule: 9D33 IgG (antibody)

Inhibition of binding (%) [6]: -1.5%
Molecule: M22 IgG (antibody)

Inhibition of binding (%) [7]: -0.9%
Inhibition of binding (%) [8]: 1.4%
Inhibition of binding (%) [9]: -0.9%
Inhibition of binding (%) [10]: -2.7%
Inhibition of binding (%) [11]: -3.1%
Inhibition of binding (%) [12]: 2.4%
Inhibition of binding (%) [13]: 4.3%
% inhibition of TSH-biotin binding [14]: 11.6%
Inhibition of binding (%) [15]: -8.6%
% inhibition of TSH-biotin binding [16]: -2%
Molecule: 5B3 IgG (antibody)

Inhibition of binding (%) [17]: 15.4%
Inhibition of binding (%) [18]: 7.1%
Inhibition of binding (%) [19]: 6.3%
% inhibition of TSH-biotin binding [20]: 21.6%
Inhibition of binding (%) [21]: 11.7%
Inhibition of binding (%) [22]: 59.2%
Inhibition of binding (%) [23]: 23.2%
Inhibition of binding (%) [24]: 91.3%
Inhibition of binding (%) [25]: 12.1%
Inhibition of binding (%) [26]: 0.6%
% inhibition of TSH-biotin binding [27]: 42.6%
B1: 5C9 IgG (antibody, from another filing, V domains shown)
VH: EVQLVESGGGLIQPGGSLRLSCAASGFTVSSNYMSWVRQAPGKGLEWVSVTYSGGSTSYADSVKGRFTISRDNSKNTLYLQMNSLRAEDTAVYYCARGGRYCSSISCYARSGCDYWGQGTLVTVSS
VL: AIQMTQSPSSLSASVGDRVTITCRASQSISNYLNWYQQKPGKAPKLLIYAASSLQSGVPSRFSGSGSGTDFTLTISSLQPEDFATYYCQQSYSSPSTTFGQGTKLEIK
